Measured values from patent US20150086555A1 (THERACLONE SCIENCES, published 2015).

B1: TCN-544 (5082_A19) (antibody, V domains shown)
VH: QVQLQESGPGLVKPSETLSLTCTVSRGSIGHYFWSWIRQPPGKGLEWIGYISYSGSTKYNPSLRSRVTISVDTSKNQFSLNLNSVTATDTALYYCAREDYDILTGAGPGMEVWGQGTTVTVSS
VL: QSMLTQPPSASGTPGQRVTISCSGSSSNIGSNTVNWFKHLPGTAPKLLIYRNDLRPSGVPDRFSGSKSGTSASLAISGLQSEDEADYYCATWDDSLNGFYVFGTGTKVTVL
B2: TCN-545 (5082_I15) (antibody, V domains shown)
VH: QVQLQQWGAGLLKPSETLSLSCAVFGGSFSDYYWTWIRQPPGKGLEWIGEIKHSGRTNYNPSLESRVTISVDTSKNQFSLKLSSVTAADTAIYYCARGTDPDTEGYCRSGSCSAFDFWGQGTLVTVSS
VL: EIVLTQSPGTLSLSPGERATLSCRASHFVNYRSLAWYQQTPGQVPRLLIYGASTRATGIPDRFSGSGSGTDFTLTISRLEPEDFAVYFCQQYGGSPRYTFGQGTRLEIK
B3: TCN-550 (5096_F06) (antibody, V domains shown)
VH: QVQLQESGPGLVKPSETLSLTCTVSGASINSHYWSWIRQPPGKGLEWIGYVYYSGSTTYNPSLKSRVTLSVDTSKNQFSLNLSSVTAADTAFYYCARHPYDVLTGSGDWFDPWGQGTLVTVSS
VL: SYVLTQAPSVSVAPGQTARITCGGNAIGSKKVHWYQHKAGQAPVLVVYDDTDRPSGIPERFSGSNSWSTATLTINRVEAGDEADYYCQVWDFTIDHVVFGGGTKLTVL
B4: TCN-540 (5060_F05) (antibody, V domains shown)
VH: QVQLVQSGGGVVQPGRSLRLSCAASGFTFSSYAMHWVRQAPGKGLEWVAIISYDGNDQYYTDSVKGRFTISRDSSKVYLQMHRLRPEDTAVYYCAKEFETSGYFHGSFDYWGQGILVTVSS
VL: QSALTQPASVSGSPGQSITISCTGTSSDVGGYNYVSWYQQHPGKAPKLLIYEVTNWPSGVSNRFSGSKSGNTASLTISGLQAEDEADYYCSSYAGSSTWVFGGGTRVTVL
B5: TCN-543 (5081_G23) (antibody, V domains shown)
VH: QVHLVQSGAEVRKPGDSVKVSCKTSGYTFSTYPVAWVRQVPGQGLEWMGWISTYNGNTNFAQNFQGRVTLTTDTTTNTAYMEVRSLKFDDTAVYYCARVEGSYRDFWNNQNRFDPWGQGTLVTVSS
VL: SYVLTQPPSVSVAPGQTARISCGGSNIGGKSVHWYQQKPGQAPVLVVYDDSGRPSGIPERFSGSNSGDTATLTISRVEAGDEADYFCQVWDNFGGVFGTGTKVTVL
B6: TCN-552 (5249_I23) (antibody, V domains shown)
VH: QVQVVQSGAEVKKPGSSVRVSCQASGGTFMNYAIIWVRRAPGQGLEWMGGIIPVFPTPNYAQMFQGRVTISTDESRSTSFLELTNLRYEDTAVYYCARRIYHGGNSGFDFWGQGTLVTVSS
VL: EIVLTQSPATLSLSPGERATLSCRASQSVGNYLAWYQQKPGQAPRLLIYDSSNRAPGIPARFSGSGSGTDFTLTISSLAPEDFAVYYCQQRSKWPPMYSFGHGTKLEIK
B7: TCN-551 (5243_D01) (antibody, V domains shown)
VH: EVQLVQSGSEVKKPGESLKISCKGSGYSFSNYWIGWVRHMPGKGLEWMGIIYPGDSDTRYSPSFQGQVTMSADKSSSTVYLQWSSLKASDTAIYYCARRGGHSFGYGSGGDTHSEFDSWGQGTLVTVSS
VL: QSVLTQSPSVSAAPGQKVTISCSGSDSNIGDYFVCWYQHLPGKPPQLLIYENNKRPSGIPDRFSGSKSGTSATLGITGIQTGDEADYYCATWDGSLSAWVFGGGTKLTVL
B8: TCN-553 (5261_C18) (antibody, V domains shown)
VH: QVQVVQSGTEVKKPGSSVKVSCQTSGGRFMSYAITWVRQAPGQGLEWMGGIVPVFGTANYAQKFQGRVTITTDDSTRTAYMELSSLRSEDTAVYYCGFRYGSGYGFDSWGQGTLVTVSS
VL: EIVLTQSPGTLSLSPGERATLSCRASQSVSSSYLAWYQKKPGQAPRLLIYGASTRATGIPDRFTGSGSGTDFTLSISRLEPEDFAVYYCQHFGTSVFTFGGGTKVEIK

Molecular target: hemagglutinin on live influenza A virus, A/California/4/09 H1N1 (Influenza A virus …)
Experiment: cell-based or functional assay

Row | Binder | % Neutralization [%]
1 | B1 | 0
2 | B2 | 0
3 | B3 | 0
4 | B4 | 0
5 | B5 | 0
6 | B6 | 81
7 | B7 | 74
8 | B8 | 83
